{"source": "patent US10584243B2", "about": "“Antithrombotic compounds, methods and uses thereof” (The University of British Columbia, priority 2014, dated 2020)", "key": {"[1]": {"test_system": "platelets in human platelet-rich plasma", "experiment": "Platelet activation by flow cytometry (CD62P)", "format": "cell-based", "settings": "highest dose", "procedure": "Blood from healthy consented donors was either collected into 3.8% sodium citrate tube with a blood/anticoagulant ratio of 9:1 or serum tube at Centre for Blood Research, University of British Columbia. The protocol was approved by the University of British Columbia clinical ethical committee and written consent was obtained from each individual donor. Platelet-rich plasma (PRP) was prepared by centrifuging citrated whole blood samples at 150×g for 10 min in an Allegra X-22R™ Centrifuge (Beckman Coulter™, Canada). Serum was prepared by centrifuging the blood collected in serum tube at 1200×g for 30 min one hour after blood collection.\nThe level of platelet activation after exposure to polyP inhibitors was quantified by flow cytometry. Ninety microliters of platelet rich plasma (PRP) was incubated at 37° C. with 10 μL of either 10 mg/mL or 20 mg/mL of UHRA, protamine or PEI stock solution (final polymer concentration 1 mg/mL and 2 mg/mL respectively) in PBS. […] The level of platelet activation was analyzed in a BD FACSCanto II flow cytometer (Becton Dickinson™) by gating platelets specific events based on their forward scattering profile (size of individual platelet). Activation of platelets was expressed as the percentage of platelet activation marker CD62-PE fluorescence detected in the 10,000 total events counted. […]"}, "[2]": {"settings": "mice; intravenous injection; for UHRAs maximum injected dose, maximum tolerated dose not reached; cited from earlier work"}, "human fibrinogen": {"target": "T1, human fibrinogen (Homo sapiens, UniProt P02671+P02675+P02679)", "T1 sequence (P02671 20-644 isoform P02671-2 limits assumed)": "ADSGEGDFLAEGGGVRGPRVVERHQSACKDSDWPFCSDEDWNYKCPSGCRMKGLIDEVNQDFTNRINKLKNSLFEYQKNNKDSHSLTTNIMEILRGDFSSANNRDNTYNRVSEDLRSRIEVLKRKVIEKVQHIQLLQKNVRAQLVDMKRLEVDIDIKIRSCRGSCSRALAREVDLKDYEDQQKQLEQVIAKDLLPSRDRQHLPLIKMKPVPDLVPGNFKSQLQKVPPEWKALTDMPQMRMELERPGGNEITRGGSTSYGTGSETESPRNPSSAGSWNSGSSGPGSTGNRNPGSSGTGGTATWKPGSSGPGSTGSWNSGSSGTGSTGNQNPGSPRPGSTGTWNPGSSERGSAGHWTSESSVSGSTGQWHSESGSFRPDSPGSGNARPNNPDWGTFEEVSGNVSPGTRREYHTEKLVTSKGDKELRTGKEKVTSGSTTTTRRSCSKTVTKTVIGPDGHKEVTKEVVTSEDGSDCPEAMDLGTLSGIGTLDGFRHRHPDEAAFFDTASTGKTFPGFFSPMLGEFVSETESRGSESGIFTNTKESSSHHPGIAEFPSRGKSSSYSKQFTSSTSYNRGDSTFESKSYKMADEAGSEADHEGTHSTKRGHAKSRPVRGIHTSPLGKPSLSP", "T1 sequence (P02675 45-491 limits assumed)": "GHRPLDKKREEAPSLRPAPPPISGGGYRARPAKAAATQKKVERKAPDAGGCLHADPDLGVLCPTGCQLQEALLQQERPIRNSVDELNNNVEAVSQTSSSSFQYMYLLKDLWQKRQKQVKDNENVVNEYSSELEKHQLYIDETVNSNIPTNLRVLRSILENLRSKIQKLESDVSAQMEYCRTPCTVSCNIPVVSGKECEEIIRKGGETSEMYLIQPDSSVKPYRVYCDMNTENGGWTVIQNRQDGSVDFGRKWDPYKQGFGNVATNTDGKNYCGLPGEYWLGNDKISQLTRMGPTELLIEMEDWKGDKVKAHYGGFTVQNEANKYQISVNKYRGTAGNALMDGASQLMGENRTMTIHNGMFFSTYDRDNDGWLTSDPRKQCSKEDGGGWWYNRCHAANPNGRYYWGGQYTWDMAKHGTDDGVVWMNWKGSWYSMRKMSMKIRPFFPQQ", "T1 sequence (P02679 27-437 isoform P02679-2 limits assumed)": "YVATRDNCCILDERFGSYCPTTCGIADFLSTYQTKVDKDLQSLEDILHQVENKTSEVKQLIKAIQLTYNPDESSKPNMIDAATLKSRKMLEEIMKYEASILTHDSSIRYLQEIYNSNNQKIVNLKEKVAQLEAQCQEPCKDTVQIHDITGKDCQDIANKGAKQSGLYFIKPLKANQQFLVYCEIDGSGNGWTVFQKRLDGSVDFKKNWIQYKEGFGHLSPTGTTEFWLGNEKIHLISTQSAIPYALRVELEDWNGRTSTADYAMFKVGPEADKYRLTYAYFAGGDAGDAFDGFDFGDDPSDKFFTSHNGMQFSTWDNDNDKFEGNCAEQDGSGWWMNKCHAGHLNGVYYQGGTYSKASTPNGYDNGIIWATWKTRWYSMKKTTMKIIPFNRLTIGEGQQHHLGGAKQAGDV", "experiment": "Fibrin clot turbidity and scanning electron microscopy", "settings": "fibrin polymerization assay", "experimental": "The morphology of clots formed in presence of UHRA and protamine was determined by scanning electron microscopy (SEM) analysis. All samples for SEM were randomly coded and blinded to the individual performing imaging and analysis to avoid bias. Fibrin clots were formed in sterile round-bottomed 5 mL polypropylene tubes (BD Falcon) by mixing purified human fibrinogen (200 μL, 3 mg/mL) in 20 mM HEPES (pH 7.4 and 150 mM NaCl) with 2.5 NIHU/mL thrombin and 3 mM CaCl2 and UHRA or protamine (in HEPES buffer) (0-500 μg/mL). All concentrations are final. Control clot was prepared in the absence of UHRA or protamine. After incubating the solution for 1 hour at 37° C., clots were immediately fixed using karnovsky fixative (2.5% glutaraldehyde and 4% formaldehyde) and repeatedly washed with 0.1 M sodium cacodylate buffer (pH=7.4) followed by post-fixation with 1% v/v osmium tetroxide. The samples were washed three times with distilled water and then dehydrated with gradient ethanol series (20-95% v/v). […] Fiber diameters of all clots were measured with image analysis software package ImageJ™ (National Institutes of Health, USA). Fiber diameter (n=30) from 8 separate areas of each clot was measured and used for calculating the average fiber size formed."}}, "data": [{"substance": "protamine sulfate", "values": [{"measurement": "platelet activation (CD62P expression)", "setting": "[1]", "result": "about 30%"}, {"measurement": "dose tolerated (up to)", "setting": "[2]", "result": "up to 20 mg/kg"}, {"measurement": "final turbidity (A405) of fibrin clots", "setting": "human fibrinogen", "result": "elevated final turbidity"}]}]}
